In the supplement of paper PMC12764529:
± gives the half width of the 95% confidence interval.

Columns and labels:
[1] = folding stability dG unfold from trypsin proteolysis; higher = more stable
How it was run: (§1)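 Unfolding free energy was derived, per protease or combined, by relating Bayesian-fitted K50 values from sequencing counts to a sequence-predicted unfolded-state K50 and a shared folded-state K50. The underlying digests exposed cysteine-free mini-proteins under 80 residues, in a PA-tagged cDNA display construct, to trypsin and chymotrypsin at 11 threefold-diluted concentrations and to a no-protease condition. A filter kept only designs with AlphaFold2 dimer inter-PAE above 15.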

[2] = folding stability dG unfold from chymotrypsin proteolysis; higher = more stable
How it was run: as §1

[3] = folding stability dG unfold (combined trypsin and chymotrypsin); higher = more stable
How it was run: as §1

Row | Sequence | folding stability dG unfold [1] [kcal/mol] | folding stability dG unfold [2] [kcal/mol] | folding stability dG unfold [3] [kcal/mol]
1 | SAGGSAGGSGMMTVELTETIVSETSVVTEKVPEKGEFIVEVLETSVSVVRRTLPLALYQALLESAGGSAGGS [r12_723_JUSTAS] | 0.866 ± 0.071 | 0.631 ± 0.097 | 0.789 ± 0.087
2 | SAGGSAGGSGMMYKVTVEIYNPANGEKIGTIEREVTSEEEAKAEIEKELPLENVKVKITIEGPSAGGSAGGS [r12_578_JUSTAS] | 0.846 ± 0.084 | 0.818 ± 0.18 | 0.983 ± 0.25
3 | SAGGSAGGSGMTEVVAEKKYPNEVILVTKEPDSYYIVKVTLKDGKVVEKENLGKISPDDPSILSAGGSAGGS [r12_154_JUSTAS] | -0.0464 ± 0.065 | -0.458 ± 0.39 | -0.0617 ± 0.22
4 | SAGGSAGGSGMTTTLTTEPRPDSTVVTTTTTTPTSVTTTTTVYDPDGNVVSTTTTTTPLPATSSAGGSAGGS [r12_710_JUSTAS] | 1.73 ± 0.059 | 0.257 ± 0.018 | 1.11 ± 0.028
5 | SAGGSAGGSGNSKLTATLTLEFYDPKTGKKIAKIELKPVITTLPNGTAKIDVEYKITFTNEDDSAGGSAGGS [r12_629_TrMRF] | 2.6 ± 0.14 | 3.74 ± 0.11 | 3.39 ± 0.11
6 | SAGGSAGGSGSFSLSFPDADGVSVTLDPNTGIVTMSFNRPDANYTITLERYPDSIVVKEIKLPSAGGSAGGS [r20_60_JUSTAS] | 1.05 ± 0.026 | 1.48 ± 0.1 | 1.32 ± 0.062
7 | SAGGSAGGSGSMKVYTHNVPPGQELTITITRGSSSTTLTFPPNTTVTITVPTSSPATITLTAPSAGGSAGGS [r12_550_JUSTAS] | 1.39 ± 0.031 | 1.87 ± 0.054 | 1.74 ± 0.07
8 | SAGGSAGGSGSSTEVTTTTLPDTSYTTTNSTTTTFSPDQPEAVEAGLPVPSTVTTTTTTSPAGSAGGSAGGS [r20_138_JUSTAS] | 0.918 ± 0.056 | 0.0599 ± 0.1 | 0.59 ± 0.12
9 | SAGGSAGGSGSTVVEVEFPDARIVITVEPPGVLTVTVERPPFPVETVRLPDMTVEEAVAYALASAGGSAGGS [r20_8_JUSTAS] | 1.76 ± 0.053 | 1.14 ± 0.098 | 1.48 ± 0.074
10 | SAGGSAGGSIKPGQKVKIEIKVEEVDGKLVITAKVYNKDGKLIYEAEIVIENGKIKEVKITPPSAGGSAGGS [r12_264_TrROS_Hall] | 2.58 ± 0.16 | 3.11 ± 0.31 | 2.9 ± 0.34
11 | SAGGSAGGSIPEILKKIGISPEVVTEVEVTPVEKLPDSLVVKVTYTYKLPNGTTETKTVTVPIGSAGGSAGG [r6_776_JUSTAS] | 2.14 ± 0.091 | 2.76 ± 0.034 | 2.66 ± 0.13
12 | SAGGSAGGSIRIIFPVDNPEQAENIAEEIAERFGIQIEDIEVEQVPNGMYIVTFEVKIPPEMISAGGSAGGS [r12_577_TrROS] | 2.41 ± 0.13 | 2.28 ± 0.036 | 2.38 ± 0.096
13 | SAGGSAGGSIRRDENGNFRVRIKVRFPGNGRKRTIEIPFDNATLEEIRKQAIDHGIRPIEIIPSAGGSAGGS [r12_792_TrROS] | 0.993 ± 0.052 | 1.35 ± 0.053 | 1.24 ± 0.047
14 | SAGGSAGGSISQIKSKIKKILEEKGLKPTKIVIKKTEKLKNKIKVEVEVEIGKGPKISMIIEIESAGGSAGG [r6_841_JUSTAS] | 3.89 ± 0.21 | 2.43 ± 0.16 | 3.19 ± 0.22
15 | SAGGSAGGSITIEIPGASSLEEAIEQAEVVVNEIVKKGYPGKPIKVTVILPGTGEAFTFEVPLESAGGSAGG [r6_237_TrMRF] | 2.02 ± 0.11 | 2.4 ± 0.047 | 2.19 ± 0.12
16 | SAGGSAGGSIWIPPNHSVEEFAKEIQDKGNAEVKRDEPGWYKIKSKNNKPKKRIRFQANPEQFSAGGSAGGS [r20_236_TrROS] | -0.163 ± 0.5 | 0.24 ± 0.53 | -0.046 ± 0.43
17 | SAGGSAGGSKAEVFETPDGLVVVVVPTEDSVRAFVFFPDGYIAEFDFPTGKIVRIFSPDEEIASAGGSAGGS [r12_235_TrMRF] | 2.8 ± 0.09 | 3.55 ± 0.052 | 3.27 ± 0.079
18 | SAGGSAGGSKAKIEVLEVFPDYIVYKIETENPVIAVIVPLPNGKVKIFVFNPNGEPIAEFELGSAGGSAGGS [r12_1061_TrMRF] | 2.04 ± 0.18 | 3.88 ± 0.062 | 3.4 ± 0.17
19 | SAGGSAGGSKEIVIKVNVSEEDLKEKAEELLKKLEELLPPGAKIKKIEIEYDEETGELVIKIESAGGSAGGS [r12_308_TrROS_Hall] | 2.49 ± 0.22 | 1.94 ± 0.15 | 2.26 ± 0.18
20 | SAGGSAGGSKGVKELVIVVPPDKPEKIEEFLKKLRDEYAKDIKVLEVKETPDGGYIAKIKITDSAGGSAGGS [r12_91_TrMRF] | 1.4 ± 0.041 | 1.96 ± 0.071 | 1.85 ± 0.12
21 | SAGGSAGGSKIEIHVQVSPELSPEEALERIRREIEEALPEELKDISLDDIIITVYPSHPDVPLSAGGSAGGS [r12_384_TrMRF] | 1.09 ± 0.047 | -0.0223 ± 0.053 | 0.643 ± 0.099

Row | Sequence | folding stability dG unfold [1] [kcal/mol] | folding stability dG unfold [2] [kcal/mol] | folding stability dG unfold [3] [kcal/mol]
22 | SAGGSAGGSKIKIYPYSTKGKNEVYYLIETENNYLYIKVTIYYDPKTGKPVKIEIKEIFTLPKSAGGSAGGS [r12_70_TrMRF] | 2.44 ± 0.09 | 3.07 ± 0.12 | 2.57 ± 0.26
23 | SAGGSAGGSKIPPNQFIVRIEIKRRKPNGEKRKHEIIIPVGMPLDTLRDHAPPGYEITDIEVISAGGSAGGS [r12_597_TrROS] | 1.17 ± 0.023 | 1.8 ± 0.021 | 1.6 ± 0.05
24 | SAGGSAGGSKITIKLIKNGEIVEEKEIEDKKTGKKIKIKAIKKDGKLYLVIEVDGKKYVIPLPSAGGSAGGS [r12_994_TrROS_Hall] | 2.02 ± 0.23 | 3.93 ± 0.089 | 3.57 ± 0.39
25 | SAGGSAGGSKKEYLVLVYNPATGEPFPILAPDDVPFEELAKKIADEILKGLPKDVKIEFVKLGSAGGSAGGS [r20_213_TrMRF] | 0.808 ± 0.086 | 0.795 ± 0.061 | 0.874 ± 0.17
26 | SAGGSAGGSKKKITVKIEEVKLNPETGKLVLVKIKLPDGKELVFKTPEEIENLPGAEFEVYELSAGGSAGGS [r20_192_TrROS_Hall] | 1.53 ± 0.14 | 1.47 ± 0.13 | 1.45 ± 0.27
27 | SAGGSAGGSKKKKKPKKKKYIVIKVDMSLEEVKKLISKLLGFEEGEKIEIVKVDPENKYIVIKSAGGSAGGS [r12_815_TrROS_Hall] | 2.01 ± 0.072 | 2.35 ± 0.11 | 2.08 ± 0.27
28 | SAGGSAGGSKKKLTLTLKVEYVDEETGEKRTVTLTITAESEEEAKAALEELAKKLPPGARIEVSAGGSAGGS [r20_211_TrROS_Hall] | 3.3 ± 0.16 | 4.44 ± 0.11 | 4.21 ± 0.19
29 | SAGGSAGGSKKKVKVVKVEKPEGDYYVVTVYYEDGKLLKKVVFPKGVKPEEVLEKVKKLVEEESAGGSAGGS [r12_798_TrMRF] | 1.95 ± 0.043 | 2.82 ± 0.049 | 2.51 ± 0.076
30 | SAGGSAGGSKKPIPVKVIETKPDPEIGGITTVELEFPDGSKATFTSIEDIEKIPDIEVEIKLGSAGGSAGGS [r20_192_TrMRF] | 0.591 ± 0.027 | 0.639 ± 0.043 | 0.648 ± 0.056
31 | SAGGSAGGSKKRTILIQFPNGSPEEAVDNIKNWLRALGNEPIPLEDVKIQWYPGNPGYFQIEISAGGSAGGS [r12_122_TrROS] | 1.81 ± 0.027 | 2.94 ± 0.042 | 2.53 ± 0.12
32 | SAGGSAGGSKKVKIEINVVVPPGMTPEKAKQMAEEFAREIAEAYGGKDVKVKVRIMYIPPDQFSAGGSAGGS [r12_522_TrROS] | 2.04 ± 0.084 | 2.19 ± 0.066 | 2.08 ± 0.13
33 | SAGGSAGGSKKVKVTIEYDKETGVVKVTVEDPETGEKYTVTAKFEFDKNGKLVKVEVVSIEKESAGGSAGGS [r12_791_TrROS_Hall] | 2.71 ± 0.14 | 3.94 ± 0.11 | 3.67 ± 0.11
34 | SAGGSAGGSKLKPFPIKLPGDLSMTIVELPEDPRFIVTVWHPDGDKPIDSIEFEPDEFEANVGSAGGSAGGS [r20_190_TrMRF] | 0.285 ± 0.023 | 0.793 ± 0.033 | 0.591 ± 0.078
35 | SAGGSAGGSKLTIMVKMDSAEDAEEEARSLLKELGIKPGMKEVKVSMFPRGNEYYAHVEIKFKSAGGSAGGS [r12_7_TrROS] | 0.672 ± 0.038 | 0.759 ± 0.15 | 0.776 ± 0.12
36 | SAGGSAGGSKPEIRKIKIYTKEGGKKIIPVNGTVIEIDGKKYKVKPNDKIKVPKNVKKIEPEGSAGGSAGGS [r12_779_TrMRF] | -0.395 ± 0.25 | 0.153 ± 0.19 | 0.028 ± 0.22
37 | SAGGSAGGSKPEPVKPVKLKVKLPGGEYEVEAVELPKGVVLVRNPADNSLAVITPDRLVVLPLSAGGSAGGS [r12_737_TrMRF] | 0.754 ± 0.024 | 0.0823 ± 0.14 | 0.468 ± 0.076
38 | SAGGSAGGSKPEYVLRVKIYNEETGELVEEIEITVKSKEEALKALKKLLPKDNVKIEVEILPPSAGGSAGGS [r12_578_TrROS_Hall] | 3.34 ± 0.11 | 3.09 ± 0.25 | 3.2 ± 0.17
39 | SAGGSAGGSKPIVAPVSVEDLTLEGLKALVDSHPEGEVPIFVTRSDGKPLVITVLPDGELSLDSAGGSAGGS [r12_1054_TrMRF] | 0.17 ± 0.019 | -1.49 ± 0.31 | -0.318 ± 0.076
40 | SAGGSAGGSKPKEIETVTLKLTLKDPETGEEIEVTVELTRVRVDGKEYLILRVTDPDGKEIELSAGGSAGGS [r12_283_TrROS_Hall] | 3.13 ± 0.12 | 4.115 ± 0.039 | 3.81 ± 0.09
41 | SAGGSAGGSKPNEIKIKKIKIEVKIKKKKVDKEKGEEIYEIEEVKIEIEEITLSKEELEKLLKSAGGSAGGS [r12_723_TrROS_Hall] | 1.54 ± 0.097 | 2.06 ± 0.088 | 1.94 ± 0.12
42 | SAGGSAGGSKPVLVKVERKEVEVPLPDGTPGKVFVVKVTVLGENEPLAEKTYLFASEEEAKESSAGGSAGGS [r12_461_TrMRF] | 0.102 ± 0.076 | 0.761 ± 0.17 | 0.595 ± 0.13
